In series [1] the target is T1, FRET peptide MCA-ATDHGSES-Lys DNP (no RA motif).
T1 chain: ATDHGSES

In series [2] the target is T2, OPA1 FRET substrate MCA-AFRATDHG-DNP.
T2 chain: AFRATDHG

B1: Metalloendopeptidase OMA1 (OMA1), endogenous enzyme in normal rat kidney (NRK-52E) cell lysate (protein)
chain: AAPVPLLMLILKPVQKLLAIIVGRGIRKWWQALPPDKKALFKDSVKRNKWRLLLGLSAFGLLFVVFYFTHLEVSPVTGRSKLLLVGKEHFRLLSDLEYEVWMEEFKNDLLPEEDPRYLTVKKVVYHLTQCNQDVPGVSEINWVVHVVHSPKVNAFVLPNGQVFVFTGLLNSVTDMHQLSFLLGHEIAHAVLGHAAEKASLVHLLDFLGMIFLTMIWAICPRDSLAVLGQWIQSKLQEYMFDRPYSRTLEAEADKIGLQLAAKACVDVRASSVFWQQMEFSESLHGYPKLPEWLSTHPSHGNRAEYLDRLIPQALKLREVCNCPPLSGPDPRLLFRLTVKHLLEDSEKEDLNITVKKQKPDALPIQKQEQIPLTYALGKRTAG
Take B1: the “OMA1 Activity (average slope over 30 min compared to AFRATDHG substrate)” value turned out to be 2.71% in series [1] and 100% in series [2].

For the origin of these results see US20190049430.
